The chains are these.
B1: Flag-tagged Ash2l-N terminus (1-172, the PHD domain) (other, UniProt Q91X20 1-172, looked up)
chain: MAAAGAGPGPGVSAGPGPGAAASATTAEDRETEPVAAGAGEGPSAAPGAEPSSGEAESGDANLVDVSGLETESSNGKDTLEGTGDTSEVMDTQAGSVDEENGRQLGEVELQCGICTKWFTADTFGIDTSSCLPFMTNYSFHCNVCHHSGNTYFLRKQANLKEMCLSALANLT
notes: range 1-172; also called Flag-Ash2l-N; not shown: 3xFlag tag of the p3xFlag plasmid
B2: Nanog (endogenous, mouse embryonic stem cells) (other, UniProt Q80Z64 1-305, looked up)
chain: MSVGLPGPHSLPSSEEASNSGNASSMPAVFHPENYSCLQGSATEMLCTEAASPRPSSEDLPLQGSPDSSTSPKQKLSSPEADKGPEEEENKVLARKQKMRTVFSQAQLCALKDRFQKQKYLSLQQMQELSSILNLSYKQVKTWFQNQRMKCKRWQKNQWLKTSNGLIQKGSAPVEYPSIHCSYPQGYLVNASGSLSMWGSQTWTNPTWSSQTWTNPTWNNQTWTNPTWSSQAWTAQSWNGQPWNAAPLHNFGEDFLQPYVQLQQNFSASDLEVNLEATRESHAHFSTPQALELFLNYSVTPPGEI

The target in test [1] is B2. The test can be described thus: co-IP of Flag-tagged Ash2l constructs from nuclear extracts, Western blot. As to the method: (§1) For samples from gel filtration, we used Centricon (Millipore) to concentrate and desalt the fraction of elute. Cleared sample solution was obtained by centrifugation at 12 000 rpm for 30 min at 4° C., and 0.5-1.5 mg of the sample was used for immunoprecipitations. For identify interacting complex of Ash2l protein, sample was added into primary antibody for 2 h at […] followed by 2 h of further incubation with protein A/G-Sepharose beads. After washing three times with the lysis buffer, immunoprecipitated proteins were eluted from the beads by boiling for 5 min in SDS-PAGE sample buffer and analyzed by immunoblotting.
(§2) To identify the domain(s) of Ash2l responsible for this protein interaction, we constructed expression plasmids for Flag-tagged truncated Ash2l (Ash2l-N-terminus: 1-172, the PHD domain; and Ash2l-C-terminus: 387-623, the SPRY domain) and full-length Ash2l (Ash2l-full length: 1-623; FIG. 2D) for various experiments. First, we overexpressed truncated and full-length Ash2l proteins in HEK293T cells, and subjected the nuclear extracts to immunoprecipitation (FIG. 2E). Rbbp5 associated with full-length Ash2l and Ash2l-C, which is consistent with previous findings (26). Remarkably, Oct4, Sox2, and Nanog associated with full-length Ash2l and Ash2l-N terminus, but not Ash2l-C terminus (FIG. 2E). To further assess the direct protein-protein interaction, Ash2l-N, Ash2l-C, and full-length Ash2l recombinant proteins were purified from bacteria (FIG. 2G) and independently incubated with various recombinant proteins, including Oct4, Sox2 and Nanog, and the p300 (Taz domain) protein. As shown in the in vitro pull-down assays with further analysis using Western blot or Coomassie staining (FIG. 2F and 2G), Ash2l directly interacted with the master stemness factors, Oct4, Sox2, and Nanog through its N terminus (1-172) (FIG. 2F and 2G). We then used the ZDOCK software to simulate the molecular docking between Ash2l and Oct4 and further predicted that several residues at the N terminus of Ash2l, including K117, W118, E180, K190, N217, and K220, may be crucial for the recognition and interaction with Oct4 (FIG. 2H). To determine which residue(s) of Ash2l was important for its interaction with Oct4, we used immunoprecipitation to assess the binding abilities of different Flag-tagged Ash2l mutants (K117A, W118A, E180A, K190A, N217A, and K220A) to Myc-tagged Oct4.

Test [2] concerns the target Oct4 (endogenous, mouse embryonic stem cells) (mouse, UniProt P20263 1-352). The description is as above. As for the experimental part:
as §1, §2

In test [3] the target is Sox2 (endogenous, mouse embryonic stem cells) (mouse, UniProt P48432 1-319). The description is as above. As to the method:
as §1, §2

Test [4] deals with T1, Flag-tagged full-length Ash2l (Ash2l-Full length: 1-623) (UniProt Q91X20 1-623).
T1 construct: range 1-623; Expressed in cells for co-IP, ChIP and reporter assays, or purified from E. coli BL21 for in vitro pull-downs; also called Flag-Ash2l^WT; Flag-Ash2l-F; not shown: 3xFlag tag of the p3xFlag plasmid
Described as above. As for the experimental part:
as §1, §2

For test [5], the target named is T2, Ash2l (endogenous, in nuclear extracts of mouse embryonic stem cells) (mouse, UniProt Q91X20 1-623, limits assumed).
T2 construct: Endogenous protein in gel filtration fractions of ESC nuclear extracts or on ESC chromatin
Briefly: co-IP from gel filtration fraction 1 of ESC nuclear extract; also fraction 3 after Wdr5 knockdown (Ash2l still interacted with OSN). As to the method: as §1
Nuclear extraction was performed according to the manual instruction. Biochemical fractionation of ESC extracts into seven fractions was performed as described previously (Ang et al., 2011). Briefly, ESCs were lysed with lysis buffer and applied onto […] column (HiPrep 16/60 Sephycryl). […]
To further understand the role of Ash2l in stemness regulation, we used gel filtration analysis (FIG. 2A) followed by Western blot to investigate the profiles of molecular complexes in the nuclei of ESCs (FIG. 2B). […] Subsequently, we assessed these OSN-enriched (fraction 1), OSN/WRD-enriched (fraction 3), and WRD-enriched fractions (fraction 4) in an immunoprecipitation assay. […]
(In general: In gel filtration, larger molecules generally elute earlier.)

Chain of Sox2 (endogenous, mouse embryonic stem cells) (P48432 whole entry): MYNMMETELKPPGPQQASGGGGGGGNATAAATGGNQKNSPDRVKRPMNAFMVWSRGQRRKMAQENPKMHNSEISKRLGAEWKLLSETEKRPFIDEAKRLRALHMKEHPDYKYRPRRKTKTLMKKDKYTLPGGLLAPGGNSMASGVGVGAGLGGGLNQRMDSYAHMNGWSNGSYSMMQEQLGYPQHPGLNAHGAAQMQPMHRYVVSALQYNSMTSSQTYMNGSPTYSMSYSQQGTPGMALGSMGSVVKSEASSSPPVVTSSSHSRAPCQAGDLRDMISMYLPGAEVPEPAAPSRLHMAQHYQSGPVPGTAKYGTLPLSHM
Chain of Oct4 (endogenous, mouse embryonic stem cells) (P20263 whole entry): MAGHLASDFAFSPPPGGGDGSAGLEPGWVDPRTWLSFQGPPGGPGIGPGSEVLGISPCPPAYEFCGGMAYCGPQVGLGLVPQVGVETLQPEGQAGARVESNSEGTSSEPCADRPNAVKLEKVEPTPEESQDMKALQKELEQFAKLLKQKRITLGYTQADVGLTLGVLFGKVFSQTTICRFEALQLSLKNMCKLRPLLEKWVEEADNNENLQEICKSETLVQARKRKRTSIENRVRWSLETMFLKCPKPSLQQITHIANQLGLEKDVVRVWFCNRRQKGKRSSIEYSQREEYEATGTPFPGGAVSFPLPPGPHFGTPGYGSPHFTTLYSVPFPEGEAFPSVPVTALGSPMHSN

On to B1, for which the binding result in test [1], in test [2] and in test [3] was “binds” in each case.
For the molecule B2, the binding result in test [4] and in test [5] was “binds” each time.
